What was measured:
[1] = target: full length human PDGFR-beta on HEK293 cells (human) (UniProt P09619); assay: cell-based or functional assay
[2] = target: Macaca fascicularis PDGFRb.mmh (Macaca fascicularis); assay: SPR, mAb captured, 25 C
hPDGFRb.mmh (human) [3] = target: hPDGFRb.mmh (human) (UniProt P09619); assay: SPR, mAb captured, 25 C
human PDGFRb.hFc (human) [4] = assay: SPR, mAb captured, 25 C
[5] = target: Macaca fascicularis PDGFRb.mmh (Macaca fascicularis); assay: SPR, mAb captured, 37 C
hPDGFRb.mmh (human) [6] = target: hPDGFRb.mmh (human) (UniProt P09619); assay: SPR, mAb captured, 37 C
human PDGFRb.hFc (human) [7] = assay: SPR, mAb captured, 37 C
hPDGFRb.mmh (human) [8] = target: hPDGFRb.mmh (human) (UniProt P09619); assay: blocking ELISA, biot-hPDGFRb.mmh to coated PDGF-BB
hPDGFRb.mmh (human) [9] = target: hPDGFRb.mmh (human) (UniProt P09619); assay: blocking ELISA, biot-hPDGFRb.mmh to coated PDGF-BB; average of three experiments
hPDGFRb.mmh (human) [10] = target: hPDGFRb.mmh (human) (UniProt P09619); assay: Octet BLI cross-competition, 25 C; hPDGFRb.mmh on anti-Penta-His tips pre-saturated with mAb-1 H4H3099S (row 6)
hPDGFRb.mmh (human) [11] = target: hPDGFRb.mmh (human) (UniProt P09619); assay: Octet BLI cross-competition, 25 C; hPDGFRb.mmh on anti-Penta-His tips pre-saturated with mAb-1 H4H3107S (row 7)
hPDGFRb.mmh (human) [12] = target: hPDGFRb.mmh (human) (UniProt P09619); assay: Octet BLI cross-competition, 25 C; hPDGFRb.mmh on anti-Penta-His tips pre-saturated with mAb-1 H4H3305N (row 8)
hPDGFRb.mmh (human) [13] = target: hPDGFRb.mmh (human) (UniProt P09619); assay: Octet BLI cross-competition, 25 C; hPDGFRb.mmh on anti-Penta-His tips pre-saturated with mAb-1 H4H3310N (row 9)
hPDGFRb.mmh (human) [14] = target: hPDGFRb.mmh (human) (UniProt P09619); assay: Octet BLI cross-competition, 25 C; hPDGFRb.mmh on anti-Penta-His tips pre-saturated with mAb-1 Control I (row 1); self-competition

Chain of Macaca fascicularis PDGFRb.mmh (Macaca fascicularis) (chain, as listed by the source): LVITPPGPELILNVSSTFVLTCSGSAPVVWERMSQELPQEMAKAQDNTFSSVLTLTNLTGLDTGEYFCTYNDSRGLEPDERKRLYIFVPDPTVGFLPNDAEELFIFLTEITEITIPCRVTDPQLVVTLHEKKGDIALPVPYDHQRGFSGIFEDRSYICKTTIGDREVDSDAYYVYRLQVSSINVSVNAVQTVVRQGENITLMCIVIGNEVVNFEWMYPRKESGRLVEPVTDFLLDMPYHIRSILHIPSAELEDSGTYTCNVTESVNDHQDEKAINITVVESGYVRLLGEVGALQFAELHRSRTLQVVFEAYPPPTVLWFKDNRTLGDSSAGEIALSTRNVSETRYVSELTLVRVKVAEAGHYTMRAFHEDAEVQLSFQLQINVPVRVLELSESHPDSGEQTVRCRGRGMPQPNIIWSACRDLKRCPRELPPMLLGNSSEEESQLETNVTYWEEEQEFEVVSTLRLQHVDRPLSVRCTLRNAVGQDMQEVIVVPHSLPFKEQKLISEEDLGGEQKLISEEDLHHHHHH
Chain of Control I (antibody) (VH): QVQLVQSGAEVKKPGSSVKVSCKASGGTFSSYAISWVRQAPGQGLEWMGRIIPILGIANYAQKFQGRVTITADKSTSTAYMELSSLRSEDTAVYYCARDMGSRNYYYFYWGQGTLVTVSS
Chain of Control I (antibody) (VL): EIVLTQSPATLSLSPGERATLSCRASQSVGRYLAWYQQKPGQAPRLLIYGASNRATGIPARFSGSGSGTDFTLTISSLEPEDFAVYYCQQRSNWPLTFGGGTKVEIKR
Chain of hPDGFRb.mmh (human) (P09619 other isoform, or with tags, fused parts or gaps): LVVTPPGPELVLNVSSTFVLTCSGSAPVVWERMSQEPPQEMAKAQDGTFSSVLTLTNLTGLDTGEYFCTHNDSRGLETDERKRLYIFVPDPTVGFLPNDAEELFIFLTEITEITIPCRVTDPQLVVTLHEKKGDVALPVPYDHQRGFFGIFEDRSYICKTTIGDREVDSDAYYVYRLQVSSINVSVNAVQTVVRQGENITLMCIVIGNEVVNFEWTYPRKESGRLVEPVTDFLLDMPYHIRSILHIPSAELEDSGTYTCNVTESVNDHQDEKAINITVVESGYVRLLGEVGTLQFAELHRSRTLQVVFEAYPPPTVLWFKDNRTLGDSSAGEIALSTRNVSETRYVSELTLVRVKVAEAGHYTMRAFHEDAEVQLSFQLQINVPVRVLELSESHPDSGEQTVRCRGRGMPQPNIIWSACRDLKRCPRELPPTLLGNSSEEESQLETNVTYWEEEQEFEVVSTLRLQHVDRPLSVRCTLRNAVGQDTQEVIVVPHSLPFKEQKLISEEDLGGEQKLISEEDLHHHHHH
Chain of full length human PDGFR-beta on HEK293 cells (human) (P09619 33-1106 limits assumed): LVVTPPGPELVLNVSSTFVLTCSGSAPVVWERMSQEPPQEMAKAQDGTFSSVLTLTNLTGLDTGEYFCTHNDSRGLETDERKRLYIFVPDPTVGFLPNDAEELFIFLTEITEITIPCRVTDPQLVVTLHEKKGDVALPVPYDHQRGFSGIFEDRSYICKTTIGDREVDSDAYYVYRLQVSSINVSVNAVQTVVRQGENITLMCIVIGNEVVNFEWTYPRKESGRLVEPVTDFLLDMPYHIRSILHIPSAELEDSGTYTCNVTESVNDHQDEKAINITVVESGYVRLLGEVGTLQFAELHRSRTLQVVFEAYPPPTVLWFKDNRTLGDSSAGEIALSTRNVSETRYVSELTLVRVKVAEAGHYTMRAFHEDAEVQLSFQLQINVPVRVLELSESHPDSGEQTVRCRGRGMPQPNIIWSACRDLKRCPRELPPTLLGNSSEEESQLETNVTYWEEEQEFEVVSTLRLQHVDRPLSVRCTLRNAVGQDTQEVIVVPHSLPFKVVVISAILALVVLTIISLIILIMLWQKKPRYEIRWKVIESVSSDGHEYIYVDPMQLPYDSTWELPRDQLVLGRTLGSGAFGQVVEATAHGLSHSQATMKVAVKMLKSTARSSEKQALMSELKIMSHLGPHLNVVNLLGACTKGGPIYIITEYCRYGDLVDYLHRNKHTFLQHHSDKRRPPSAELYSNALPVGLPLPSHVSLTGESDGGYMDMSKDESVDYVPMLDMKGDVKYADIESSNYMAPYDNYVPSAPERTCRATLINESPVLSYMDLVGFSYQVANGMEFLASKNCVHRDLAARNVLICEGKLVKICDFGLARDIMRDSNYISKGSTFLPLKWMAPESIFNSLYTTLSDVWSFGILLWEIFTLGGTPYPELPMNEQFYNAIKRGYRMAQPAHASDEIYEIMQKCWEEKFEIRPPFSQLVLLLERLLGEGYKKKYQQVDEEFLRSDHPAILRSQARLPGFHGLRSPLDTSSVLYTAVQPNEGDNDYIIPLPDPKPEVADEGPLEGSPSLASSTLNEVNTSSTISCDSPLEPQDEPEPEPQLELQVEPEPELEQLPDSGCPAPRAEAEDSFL

Question: How did the IC50, blocking PDGF-BB (250 pM) activation, SRE-luciferase [1] turn out when Control I (antibody) was run?
Answer: 1.8e-10 M

Question: And the IC50, blocking PDGF-DD (400 pM) activation, SRE-luciferase [1]?
Answer: 1.8e-10 M

Question: And the Percent Internalization (Relative to Control I) [1]?
Answer: 100%

Question: And the Kd [2]?
Answer: 8.06 nM

Question: What about the koff [2] of the same substance?
Answer: 0.00243 s⁻¹

Question: And the kon [2]?
Answer: 302000 M⁻¹ s⁻¹

Question: What about the t1/2 [2] of the same substance?
Answer: 5 min

Question: And the Kd (hPDGFRb.mmh (human) [3])?
Answer: 12.6 nM

Question: What about the koff (hPDGFRb.mmh (human) [3]) of the same substance?
Answer: 0.00349 s⁻¹

Question: And the kon (hPDGFRb.mmh (human) [3])?
Answer: 277000 M⁻¹ s⁻¹

Question: What about the t1/2 (hPDGFRb.mmh (human) [3]) of the same substance?
Answer: 3 min

Question: What about the Kd (human PDGFRb.hFc (human) [4]) of the same substance?
Answer: 0.278 nM

Question: And the koff (human PDGFRb.hFc (human) [4])?
Answer: 0.00015 s⁻¹

Question: What about the kon (human PDGFRb.hFc (human) [4]) of the same substance?
Answer: 539000 M⁻¹ s⁻¹

Question: What about the t1/2 (human PDGFRb.hFc (human) [4]) of the same substance?
Answer: 77 min

Question: And the Kd [5]?
Answer: 20.1 nM

Question: What about the koff [5] of the same substance?
Answer: 0.00982 s⁻¹

Question: And the kon [5]?
Answer: 489000 M⁻¹ s⁻¹

Question: And the t1/2 [5]?
Answer: 1.2 min

Question: And the Kd (hPDGFRb.mmh (human) [6])?
Answer: 32.5 nM

Question: What about the koff (hPDGFRb.mmh (human) [6]) of the same substance?
Answer: 0.0146 s⁻¹

Question: What about the kon (hPDGFRb.mmh (human) [6]) of the same substance?
Answer: 450000 M⁻¹ s⁻¹

Question: What about the t1/2 (hPDGFRb.mmh (human) [6]) of the same substance?
Answer: 0.8 min

Question: And the Kd (human PDGFRb.hFc (human) [7])?
Answer: 0.27 nM

Question: And the koff (human PDGFRb.hFc (human) [7])?
Answer: 0.000217 s⁻¹

Question: And the kon (human PDGFRb.hFc (human) [7])?
Answer: 804000 M⁻¹ s⁻¹

Question: And the t1/2 (human PDGFRb.hFc (human) [7])?
Answer: 53 min

Question: And the % Maximum Blocking (hPDGFRb.mmh (human) [8])?
Answer: 92%

Question: What about the IC50 (hPDGFRb.mmh (human) [9]) of the same substance?
Answer: 0.34 nM

Question: And the Response of mAb-2 Binding to hPDGFRβ.mmh Pre-Complexed with mAb-1 (nm) (hPDGFRb.mmh (human) [10])?
Answer: 0.34 nm

Question: What about the Response of mAb-2 Binding to hPDGFRβ.mmh Pre-Complexed with mAb-1 (nm) (hPDGFRb.mmh (human) [11]) of the same substance?
Answer: 0.32 nm

Question: And the Response of mAb-2 Binding to hPDGFRβ.mmh Pre-Complexed with mAb-1 (nm) (hPDGFRb.mmh (human) [12])?
Answer: 0.34 nm

Question: What about the Response of mAb-2 Binding to hPDGFRβ.mmh Pre-Complexed with mAb-1 (nm) (hPDGFRb.mmh (human) [13]) of the same substance?
Answer: 0.33 nm

Question: And the Response of mAb-2 Binding to hPDGFRβ.mmh Pre-Complexed with mAb-1 (nm) (hPDGFRb.mmh (human) [14])?
Answer: 0.05 nm

Question: With Isotype Ctrl (antibody) as the substance, how does the Percent Internalization (Relative to Control I) [1] read?
Answer: 4%

From patent publication US20170210813A1
